Assay results taken from publication PMC3299833.

How the values were obtained:
[1] = molecular target: Pyruvate kinase isoform M2 (PKM2), endogenous (human (endogenous in SW620 and SW480)) (UniProt P14618); assay: SEC
[2] = molecular target: E. coli expressed recombinant PKM2 (rPKM2) (human) (UniProt P14618); assay: SEC

Pyruvate kinase isoform M2 (PKM2), endogenous, P14618 1-531 (enzyme; other documents disagree on this pair), sequence (P14618 whole entry, canonical isoform): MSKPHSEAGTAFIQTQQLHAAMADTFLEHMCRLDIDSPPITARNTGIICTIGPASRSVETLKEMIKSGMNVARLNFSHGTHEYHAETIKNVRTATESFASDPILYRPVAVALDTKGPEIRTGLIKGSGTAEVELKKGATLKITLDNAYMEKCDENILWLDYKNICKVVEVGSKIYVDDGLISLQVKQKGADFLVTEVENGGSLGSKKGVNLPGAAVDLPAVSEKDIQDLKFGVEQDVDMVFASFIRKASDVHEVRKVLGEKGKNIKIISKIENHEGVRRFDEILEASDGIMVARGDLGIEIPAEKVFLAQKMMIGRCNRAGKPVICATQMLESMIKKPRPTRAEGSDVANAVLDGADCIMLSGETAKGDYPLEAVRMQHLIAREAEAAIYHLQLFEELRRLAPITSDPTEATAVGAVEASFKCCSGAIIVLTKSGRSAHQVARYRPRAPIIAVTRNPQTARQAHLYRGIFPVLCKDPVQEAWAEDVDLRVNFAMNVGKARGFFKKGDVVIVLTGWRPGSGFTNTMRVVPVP
E. coli expressed recombinant PKM2 (rPKM2), P14618 1-531 (enzyme; other documents disagree on this pair), sequence (P14618 whole entry): as the sequence (P14618 whole entry, canonical isoform) above

Row | Substance | stoichiometry N [1] | stoichiometry N [2]
1 | Pyruvate kinase isoform M2 (PKM2), endogenous, P14618 1-531 (enzyme; other documents disagree on this pair) | 2 | –
2 | E. coli expressed recombinant PKM2 (rPKM2), P14618 1-531 (enzyme; other documents disagree on this pair) | – | 2
